Consider two molecules from paper PMC5062973 (Nucleic Acids Research, 2016).

This test has as its target T1, M. jannaschii Nop5 (amino acids 1-367) (M. jannaschii, UniProt Q58105 1-367).
T1 sequence (looked up): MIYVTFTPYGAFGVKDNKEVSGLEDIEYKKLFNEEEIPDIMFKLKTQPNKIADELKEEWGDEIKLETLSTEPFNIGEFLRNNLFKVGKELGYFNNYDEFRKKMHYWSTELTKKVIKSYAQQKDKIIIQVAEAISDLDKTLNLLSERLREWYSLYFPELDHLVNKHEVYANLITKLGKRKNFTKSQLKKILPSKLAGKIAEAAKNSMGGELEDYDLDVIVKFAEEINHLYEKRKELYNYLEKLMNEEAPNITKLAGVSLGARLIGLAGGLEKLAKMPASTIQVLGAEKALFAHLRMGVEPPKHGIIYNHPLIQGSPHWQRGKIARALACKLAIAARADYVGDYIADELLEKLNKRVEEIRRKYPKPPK
The experiment in a line: SEC. For orientation: SEC sorts molecules by how far they enter the pores of the column.

B1: M. jannaschii L7Ae (natural protein)
chain: not shown
Take B1: the binding result was “binds”.

B2: M. jannaschii fibrillarin with a N-terminal FLAG-tag (enzyme, UniProt Q58108 1-230, looked up)
chain: MEDIKIKEIFENIYEVDLGDGLKRIATKSIVKGKKVYDEKIIKIGDEEYRIWNPNKSKLAAAIIKGLKVMPIKRDSKILYLGASAGTTPSHVADIADKGIVYAIEYAPRIMRELLDACAERENIIPILGDANKPQEYANIVEKVDVIYEDVAQPNQAEILIKNAKWFLKKGGYGMIAIKARSIDVTKDPKEIFKEQKEILEAGGFKIVDEVDIEPFEKDHVMFVGIWEGK
For the molecule B2, the binding result was “binds”.
